Experimental data published in paper PMC10958106.

Target: AP2 core GST (α2 trunk, β2 trunk and μ2 subunit) (UniProt O94973)
Assay: pull-down; AP2 core GST (or empty GST) bound to glutathione resin, incubated 3 h at 4 °C with extracts of HEK293 cells transfected with the receptor with or without HPV-16 E7; lysis buffer 50 mM HEPES pH 7.4, 150 mM NaCl, 1 mM MgCl2, 1% Triton X-100; Western blot

UniProt O94973, sequence (O94973 whole entry, chain 1 of 3): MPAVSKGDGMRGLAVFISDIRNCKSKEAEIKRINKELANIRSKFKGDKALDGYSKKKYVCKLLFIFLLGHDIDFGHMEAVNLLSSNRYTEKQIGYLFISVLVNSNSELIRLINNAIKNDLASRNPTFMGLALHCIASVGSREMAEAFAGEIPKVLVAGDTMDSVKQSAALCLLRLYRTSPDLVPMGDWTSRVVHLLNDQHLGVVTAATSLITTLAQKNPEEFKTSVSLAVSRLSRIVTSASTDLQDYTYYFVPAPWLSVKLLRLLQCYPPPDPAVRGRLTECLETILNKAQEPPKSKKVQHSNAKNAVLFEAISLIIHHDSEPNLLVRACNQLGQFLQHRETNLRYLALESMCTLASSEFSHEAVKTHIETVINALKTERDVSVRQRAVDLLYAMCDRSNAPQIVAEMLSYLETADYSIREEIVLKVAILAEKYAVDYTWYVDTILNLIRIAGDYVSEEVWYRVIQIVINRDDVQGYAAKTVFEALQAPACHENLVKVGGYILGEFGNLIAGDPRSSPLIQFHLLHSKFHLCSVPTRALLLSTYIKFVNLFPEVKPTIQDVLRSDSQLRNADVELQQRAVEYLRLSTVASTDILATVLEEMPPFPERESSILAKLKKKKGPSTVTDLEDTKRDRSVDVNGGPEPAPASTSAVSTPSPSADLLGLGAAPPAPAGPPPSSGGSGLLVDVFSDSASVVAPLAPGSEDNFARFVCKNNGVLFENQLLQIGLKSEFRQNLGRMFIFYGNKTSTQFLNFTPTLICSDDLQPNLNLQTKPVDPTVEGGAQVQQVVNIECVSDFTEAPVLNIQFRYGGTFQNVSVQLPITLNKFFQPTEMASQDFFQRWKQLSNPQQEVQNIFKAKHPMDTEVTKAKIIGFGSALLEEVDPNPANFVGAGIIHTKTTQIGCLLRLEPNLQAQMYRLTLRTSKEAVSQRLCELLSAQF
UniProt O94973, sequence (P63010 whole entry, chain 2 of 3, further chain): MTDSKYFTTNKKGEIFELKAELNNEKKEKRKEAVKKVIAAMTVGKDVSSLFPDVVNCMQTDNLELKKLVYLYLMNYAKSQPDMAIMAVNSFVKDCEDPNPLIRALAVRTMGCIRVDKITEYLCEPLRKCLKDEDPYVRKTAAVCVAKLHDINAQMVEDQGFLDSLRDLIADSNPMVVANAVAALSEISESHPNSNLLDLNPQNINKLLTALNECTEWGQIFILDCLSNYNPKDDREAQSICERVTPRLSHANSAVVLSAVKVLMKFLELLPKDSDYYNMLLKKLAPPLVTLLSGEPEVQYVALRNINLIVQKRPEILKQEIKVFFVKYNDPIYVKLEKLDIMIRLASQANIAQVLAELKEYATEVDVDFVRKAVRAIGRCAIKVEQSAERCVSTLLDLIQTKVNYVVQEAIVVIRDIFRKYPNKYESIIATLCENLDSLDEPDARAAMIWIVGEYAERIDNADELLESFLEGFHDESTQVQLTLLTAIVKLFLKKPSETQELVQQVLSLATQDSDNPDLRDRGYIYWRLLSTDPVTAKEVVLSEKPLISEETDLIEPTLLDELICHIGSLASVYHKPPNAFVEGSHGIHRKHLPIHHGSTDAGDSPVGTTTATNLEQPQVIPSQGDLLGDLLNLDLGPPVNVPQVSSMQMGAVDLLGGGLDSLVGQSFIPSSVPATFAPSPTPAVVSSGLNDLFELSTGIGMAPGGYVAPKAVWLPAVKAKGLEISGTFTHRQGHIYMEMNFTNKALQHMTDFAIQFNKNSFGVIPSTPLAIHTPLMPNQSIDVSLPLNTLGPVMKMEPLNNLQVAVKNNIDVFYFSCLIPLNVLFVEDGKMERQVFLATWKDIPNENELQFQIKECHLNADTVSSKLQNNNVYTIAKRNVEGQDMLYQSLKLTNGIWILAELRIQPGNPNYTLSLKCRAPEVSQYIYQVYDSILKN
UniProt O94973, sequence (Q96CW1 whole entry, chain 3 of 3, further chain): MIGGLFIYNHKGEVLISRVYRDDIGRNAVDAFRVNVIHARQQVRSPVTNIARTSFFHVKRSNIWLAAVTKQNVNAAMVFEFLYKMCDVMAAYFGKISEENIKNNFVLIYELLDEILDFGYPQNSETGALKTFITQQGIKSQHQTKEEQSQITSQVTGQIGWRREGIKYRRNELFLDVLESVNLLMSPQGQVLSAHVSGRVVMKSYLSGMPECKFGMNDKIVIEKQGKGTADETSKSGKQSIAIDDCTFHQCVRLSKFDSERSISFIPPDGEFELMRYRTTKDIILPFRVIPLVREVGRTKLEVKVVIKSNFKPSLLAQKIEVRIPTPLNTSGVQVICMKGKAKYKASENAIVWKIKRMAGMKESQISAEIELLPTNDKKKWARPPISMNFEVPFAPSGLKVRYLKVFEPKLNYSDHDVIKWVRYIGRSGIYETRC

**Q.** What does the source list for “HPV-16 E7-FLAG/HA (from UniProt P03129 1-98) (natural protein)”?
**A.** percent reduction of the binding of CD109 to the AP2 core in the presence of E7: 50%; percent reduction of the binding of EGFR to the AP2 core in the presence of E7: > 70%; percent reduction of the binding of MET to the AP2 core in the presence of E7: 50%
